Substitutions are numbered along the chain they refer to. Each block holds one binder with its values, some of them ahead of it.
What was measured:
Mouse latent myostatin = biological target: T1, Mouse latent myostatin (mouse, UniProt O08689 26-267; O08689 268-376); assay: SPR (BIACORE T200) 37C, pH 7.4, antibody captured by ProA/G
T1 construct: Latent form = complex of two propeptides and the mature dimer
T1 sequence 1: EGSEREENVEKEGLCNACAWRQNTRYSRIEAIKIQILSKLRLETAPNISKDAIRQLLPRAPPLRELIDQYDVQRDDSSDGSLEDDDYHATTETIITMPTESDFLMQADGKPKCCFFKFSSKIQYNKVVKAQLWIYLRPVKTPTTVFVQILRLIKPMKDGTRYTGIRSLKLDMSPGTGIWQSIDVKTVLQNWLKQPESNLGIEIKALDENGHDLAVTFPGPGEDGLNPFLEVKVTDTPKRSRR
T1 sequence 2: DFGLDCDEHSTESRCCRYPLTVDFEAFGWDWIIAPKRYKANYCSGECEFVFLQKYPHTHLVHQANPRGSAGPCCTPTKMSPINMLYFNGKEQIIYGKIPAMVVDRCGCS
Protocol: (§1) ProA/G (Pierce) was immobilized onto all flow cells of a CM4 chip using an amine coupling kit (GE Healthcare). All antibodies and analytes were prepared in ACES pH7.4 or pH5.8 buffer containing 20 mM ACES, 150 mM NaCl, 1.2 mM CaCl₂, 0.05% TWEEN®) 20, 0.005% NaN₃. […] Human, cyno, and mouse latent myostatin was injected at 3.125 to 50 nM prepared by two-fold serial dilution, followed by dissociation. The sensor surface was regenerated each cycle with 10 mM Glycine HCl pH1.5. Binding affinity was determined by processing and fitting the data to a 1:1 binding model using BIACORE® T200 Evaluation software, version 2.0 (GE Healthcare).

[1] = biological target: T2, Cynomolgus monkey latent myostatin (cynomolgus monkey, UniProt Q95J86 25-266; Q95J86 267-375); assay: as above
T2 construct: Latent form = complex of two propeptides and the mature dimer; also called Cyno latent myostatin
T2 sequence 1: T1 sequence 1 with G2N, R5Q, E6K, A19T, R25K, Y26S, R59K, A107V, K140E, S173N
T2 sequence 2: T1 sequence 2
Protocol: as §1

Human latent myostatin = biological target: T3, Human latent myostatin (human, UniProt O14793 25-266; O14793 267-375); assay: as above
T3 construct: also called human myostatin latent form
T3 sequence 1: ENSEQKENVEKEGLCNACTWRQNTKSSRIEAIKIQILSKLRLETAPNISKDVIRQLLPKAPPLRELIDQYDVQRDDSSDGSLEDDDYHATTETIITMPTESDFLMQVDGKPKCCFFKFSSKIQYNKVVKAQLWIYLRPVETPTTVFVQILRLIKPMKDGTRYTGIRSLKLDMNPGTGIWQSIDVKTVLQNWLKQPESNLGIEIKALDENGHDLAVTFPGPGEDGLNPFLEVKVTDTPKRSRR
T3 sequence 2: T1 sequence 2
Protocol: as §1

[2] = biological target: T4, cynomolgus monkey FcγRIIIaS extracellular domain with C-terminal His-tag (cynomolgus monkey, UniProt Q8SPW2 21-206 at identity 1.00)); assay: SPR (BIACORE); KD of SG1 / KD of variant;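 note: relative to parent M103205H795-SG1 carrying the SG1 human heavy chain constant region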
T4 construct: also called cyno FcgRIIIaS; cynoFcγRIIIaS
T4 chain: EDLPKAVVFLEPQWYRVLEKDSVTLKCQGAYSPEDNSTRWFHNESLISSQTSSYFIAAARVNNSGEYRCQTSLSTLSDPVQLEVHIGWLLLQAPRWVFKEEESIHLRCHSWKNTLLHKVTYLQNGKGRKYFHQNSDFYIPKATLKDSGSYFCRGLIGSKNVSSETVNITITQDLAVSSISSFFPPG
Protocol: (§2) The kinetic analysis of interactions between these antibodies and FcγR was carried out using BIACORE® T200 or BIACORE® 4000 (GE Healthcare). HBS-EP+ (GE Healthcare) was used as the running buffer, and the measurement temperature was set to 25° C. A chip produced by immobilizing Protein A. Protein A/G or mouse anti-human IgG kappa light chain (BD Biosciences) onto a Series S Sensor Chip CM4 or CM5 (GE Healthcare) by the amine-coupling method was used. […] After the measurement, the antibody captured on the chip was washed off by allowing reaction with 10 mM glycine-HCl, pH1.5 and 25 mM NaOH so that the chip was regenerated and used repeatedly. The sensorgrams obtained as measurement results were analyzed by the 1:1 Langmuir binding model using the BIACORE® Evaluation Software to calculate the binding rate constant ka (L/mol/s) and dissociation rate constant kd (l/s), and the dissociation constant KD (mol/L) was calculated from these values. […] Regarding such interactions, KD values were calculated using the following 1:1 binding model described in BIACORE® T100 Software Handbook BR1006-48 Edition AE.
(§3) The behavior of interacting molecules according to the 1:1 binding model on BIACORE® can be described by Equation 1: Req=C·R max/(KD+C)+RI, wherein, Req is a plot of steady-state binding levels to analyte concentration. C is concentration, RI is bulk refractive index contribution in the sample, and Rmax is analyte binding capacity of the surface. When this equation is rearranged, KD can be expressed as Equation 2: KD=C·Rmax/(Req−RI)−C. KD can be calculated by substituting the values of Rmax, RI, and C into Equation 1 or Equation 2. From the current measurement conditions, RI=0, C=2 μmol/L can be used.

[3] = biological target: T5, human FcγRIIIaV extracellular domain with C-terminal His-tag (human, UniProt P08637 17-208); assay: SPR (BIACORE); KD of SG1 / KD of variant;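 note: relative to parent M103205H795-SG1 carrying the SG1 human heavy chain constant region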
T5 construct: also called human FcgRIIIaV
T5 sequence (P08637 17-208 F176V): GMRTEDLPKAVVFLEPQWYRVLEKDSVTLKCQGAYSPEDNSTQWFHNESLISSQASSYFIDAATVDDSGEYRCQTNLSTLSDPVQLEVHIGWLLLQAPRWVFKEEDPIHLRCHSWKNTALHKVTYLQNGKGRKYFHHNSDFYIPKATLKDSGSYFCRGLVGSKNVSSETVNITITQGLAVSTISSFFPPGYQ
Protocol: as §2, §3

[4] = biological target: T6, cynomolgus monkey FcγRIIa3 extracellular domain with C-terminal His-tag (cynomolgus monkey); assay: SPR (BIACORE); KD of SG1 / KD of variant;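 note: relative to parent M103205H795-SG1 carrying the SG1 human heavy chain constant region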
T6 construct: also called cyno FcgRIIa3; cynoFcγRIIa3
T6 chain: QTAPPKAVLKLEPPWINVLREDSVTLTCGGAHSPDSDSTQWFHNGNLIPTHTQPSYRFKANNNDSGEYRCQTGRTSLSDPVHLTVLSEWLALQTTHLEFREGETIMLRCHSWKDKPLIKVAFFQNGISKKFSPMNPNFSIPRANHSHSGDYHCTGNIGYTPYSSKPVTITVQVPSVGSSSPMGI
Protocol: as §2, §3

[5] = biological target: T5, human FcγRIIIaV extracellular domain …; assay: SPR (BIACORE), antibody captured, FcgR analyte
Protocol: as §2, §3

Kd (Mouse latent myostatin): 299 pM
Kd [1]: 343 pM
Kd (Human latent myostatin): 285 pM
B1: MS_M103205H795-SG1/M103202L889-SK1 (antibody, human IgG1, kappa)
heavy: not shown
light: DIVMTQSPATLSLSPGERATLSCTSSQSVYHANWLSWFQQKPGQPPKLLIYWASTLAYGVPSRFSGSGSGTDFTLTISSLQPEDAATYYCAGGYGGGRYAFGQGTKVEIKRTVAAPSVFIFPPSDEQLKSGTASVVCLLNNFYPREAKVQWKVDNALQSGNSQESVTEQDSKDSTYSLSSTLTLSKADYEKHKVYACEVTHQGLSSPVTKSFNRGEC
notes: also called MS1032LO06-SG1

KD fold (SG1 = 1) [2]: 1 fold
KD fold (SG1 = 1) [3]: 1 fold
KD fold (SG1 = 1) [4]: 1 fold
Kd [5]: 810000 pM
B2: MS_M103205H795-SG1/M103202L889-SK1 (antibody, human IgG1, kappa)
heavy: not shown
light: B1 light
notes: Parent antibody of the Fc variants; also called MS1032LO06-SG1
